We go through one molecule from PMC3828522.

One data set addresses T1, Sfmbt 4MBT wild type (Drosophila melanogaster, UniProt Q9VK33 531-980).
T1 sequence: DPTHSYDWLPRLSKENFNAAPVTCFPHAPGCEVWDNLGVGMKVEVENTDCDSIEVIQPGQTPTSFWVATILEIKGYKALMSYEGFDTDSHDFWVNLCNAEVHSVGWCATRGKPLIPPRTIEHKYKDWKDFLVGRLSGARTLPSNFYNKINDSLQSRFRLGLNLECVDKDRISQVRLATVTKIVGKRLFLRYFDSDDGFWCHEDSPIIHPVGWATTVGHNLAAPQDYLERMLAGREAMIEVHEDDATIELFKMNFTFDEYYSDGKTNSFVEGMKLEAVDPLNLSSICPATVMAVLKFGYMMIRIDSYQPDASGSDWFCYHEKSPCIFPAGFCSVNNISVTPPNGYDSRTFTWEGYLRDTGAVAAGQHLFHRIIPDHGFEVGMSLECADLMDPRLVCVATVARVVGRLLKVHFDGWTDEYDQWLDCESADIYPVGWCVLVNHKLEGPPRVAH
The data set can be described thus: EMSA.

Data set [1] has as its target Pho full-length;Sfmbt 4MBT wild type (Drosophila melanogaster;Drosophila …, UniProt Q8ST83;Q9VK33 1-520;531-980, |). The data set can be described thus: EMSA supershift. On the technique in general: A gel shift assay detects complexes by their altered migration in electrophoresis.
For the next data set, the target named is Pho full-length (Drosophila melanogaster, UniProt Q8ST83 1-520). The data set can be described thus: EMSA.
Sequence of Pho full-length (Q8ST83 whole entry): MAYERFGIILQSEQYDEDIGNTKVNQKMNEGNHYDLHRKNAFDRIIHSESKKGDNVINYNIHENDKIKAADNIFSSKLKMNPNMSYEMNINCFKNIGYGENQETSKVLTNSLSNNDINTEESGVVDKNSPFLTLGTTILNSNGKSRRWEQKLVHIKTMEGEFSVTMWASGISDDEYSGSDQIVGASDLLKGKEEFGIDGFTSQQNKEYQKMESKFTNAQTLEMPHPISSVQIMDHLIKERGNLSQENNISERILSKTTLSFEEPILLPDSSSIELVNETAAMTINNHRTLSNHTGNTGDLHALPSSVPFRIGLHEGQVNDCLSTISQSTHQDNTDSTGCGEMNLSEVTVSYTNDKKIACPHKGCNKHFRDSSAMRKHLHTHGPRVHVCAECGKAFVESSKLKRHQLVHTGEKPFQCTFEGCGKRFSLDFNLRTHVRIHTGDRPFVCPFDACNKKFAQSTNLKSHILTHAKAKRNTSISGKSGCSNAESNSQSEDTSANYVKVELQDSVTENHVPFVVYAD

Sequence of Pho full-length;Sfmbt 4MBT wild type (Q8ST83 whole entry, one chain of several): as the sequence (Q8ST83 whole entry) above

B1: Pho DNA-binding site probe (dsDNA)
DNA 1: CTCCGTCGCCATAACTGTCG
DNA 2: CGACAGTTATGGCGACGGAG
As to B1, the values for the binding result (in the data set with Sfmbt 4MBT wild type; in data set [1]; in the data set with Pho full-length) were “no binding”, “binds” and “binds”, respectively.
